Measurements from patent US10251952B2, “Humanized anti-tau(pS422) antibody brain shuttles and use thereof” (Hoffmann-La Roche Inc., priority 2014, dated 2019).
“And” between values parts separate entries of the source, which are not always exact repeats. Identical values can stand only once.

Target: human tau(pS422) (Homo sapiens, UniProt P10636, S739X)
Assay: BIAcore kinetic screening and kinetic rates of humanized VH/VL combinations
Type: binding
Details: 25 °C; VH14 or VH20 with VL variants
Protocol: In the following Table characteristics of the different humanized variants of the rabbit light chain variable domain in combination with the humanized heavy chain variable domains VH14 and VH20, respectively, are shown. Binding partner was human tau(pS422).
Kinetic screening was performed according to Schraeml et al. (Schraeml, M. and M. Biehl, Methods Mol. Biol. 901 (2012) 171-181) on a BIAcore 4000 instrument, mounted with a BIAcore CM5 sensor. The BIAcore 4000 instrument was under the control of the software version V1.1. A BIAcore CM5 series S chip was mounted into the instrument and was hydrodynamically addressed and preconditioned according to the manufacturer's instructions. The instrument buffer was HBS-EP buffer (10 mM HEPES (pH 7.4), 150 mM NaCl, 1 mM EDTA, 0.05% (w/v) P20). An antibody capture system was prepared on the sensor surface. A polyclonal goat anti-human antibody with human IgG-Fc specificity (Jackson Lab.) was immobilized at 30 μg/ml in 10 mM sodium acetate buffer (pH 5) to spots 1, 2, 4 and 5 in the instrument's flow cells 1, 2, 3 and 4 at 10,000 RU using NHS/EDC chemistry. In each flow cell the antibodies were captured on spot 1 and spot 5. Spot 2 and spot 4 were used as reference spots. The sensor was deactivated with a 1 M ethanolamine solution. Humanized antibody derivatives were applied at concentrations between 44 nM and 70 nM in instrument buffer supplemented with 1 mg/ml CMD (carboxymethyldextrane). The antibodies were injected at a flow rate of 30 μl/min for 2 minutes. The capture level (CL) of the surface-presented antibodies was measured in rel. response units (RU). The analytes in solution, phosphorylated human tau protein, non-phosphorylated human tau protein and the phosphorylated human tau mutant protein T422S were injected at 300 nM for 3 minutes at a flow rate of 30 μl/minute. The dissociation was monitored for 5 minutes. The capture system was regenerated by a 1 minute injection of 10 mM glycine buffer, pH 1.7 at 30 μL/minute over all flow cells. Two report points, the recorded signal shortly before the end of the analyte injection, denoted as binding late (BL) and the recorded signal shortly before the end of the dissociation time, stability late (SL), were used to characterize the kinetic screening performance. Furthermore, the dissociation rate constant kd (1/s) was calculated according to a Langmuir model and the antibody/antigen complex half-life was calculated in minutes according to the formula ln(2)/(60*kd). The molar ratio (MR) was calculated according to the formula MR=(Binding Late (RU))/(Capture level (RU))*(MW(antibody)/(MW(antigen)). In case the sensor was configured with a suitable amount of antibody ligand capture level, each antibody should be able to functionally bind at least to one analyte in solution, which is represented by a molar ratio of MR=1.0. Then, the molar ratio is also an indicator for the valence mode of analyte binding. The maximum valence can be MR=2 for an antibody binding two analytes, one with each Fab valence.
In another embodiment, kinetic rates were determined at 25° C. and 37° C. using the same experimental setup, but using multiple concentration series of each analyte in solution at 0 nM (buffer), 1.2 nM, 3.7 nM, 11.1 nM, 33.3 nM, 100 nM and 300 nM. From the concentration-dependent binding behavior the kinetic data was calculated using the BIAcore evaluation software according to the manufacturer's instructions and a Langmuir 1.1 model with RMAX global.

| kd | t/2 diss | kd [1/s] | Molecule |
| --- | --- | --- | --- |
| 0.00303 s⁻¹ and 0.00239 s⁻¹ | 4 min and 5 min | – | VH14 with VL17: anti-human tau(pS422) antibody; VH SEQ ID NO: 50, VL SEQ ID NO: 37 (antibody, V domains shown, humanized sequence) VH: QQLVESGGGLVQPGGSLRLSCAASGFSLSSNAINWVRQAPGKGLEWVGYIAVSGNTYYASWAKGRFTISRDNSKNTLYLQMNSLRAEDTAVYYCGKSNIWGPGTLVTVSS VL: DIQMTQSPSSLSASVGDRVTITCRSSQSVRTNKLAWFQQKPGQPPKRLIYSASTLDFGVPSRFSGSGSGTEFTLTISSLQPEDFATYYCLGYFDCSIADCVAFGGGTKVEIK |
| 0.011 s⁻¹ | 1 min | – | VH14 with VL35: anti-human tau(pS422) antibody; VH SEQ ID NO: 50, VL SEQ ID NO: 41 (antibody, V domains shown, humanized sequence) VH: QQLVESGGGLVQPGGSLRLSCAASGFSLSSNAINWVRQAPGKGLEWVGYIAVSGNTYYASWAKGRFTISRDNSKNTLYLQMNSLRAEDTAVYYCGKSNIWGPGTLVTVSS VL: AIQMTQSTSSLSASVGDRVTITCRSSQSVRTNRLAWFQQKPGQPPKRLIYSASTLDFGVPSRFSGSGSGTEFTLTISSLQPEDFATYYCLGYFDSSIADIVAFGGGTKVEIK |
| – | 5 min | 2.35E−03. 1/s | VH14 with VL09: anti-human tau(pS422) antibody; VH SEQ ID NO: 50, VL SEQ ID NO: 33 (antibody, V domains shown, humanized sequence) VH: QQLVESGGGLVQPGGSLRLSCAASGFSLSSNAINWVRQAPGKGLEWVGYIAVSGNTYYASWAKGRFTISRDNSKNTLYLQMNSLRAEDTAVYYCGKSNIWGPGTLVTVSS VL: DIQMTQSPSTLSASVGDRVTITCRASQSVRTNKLAWYQQKPGKAPKRLIYSASTLESGVPSRFSGSGSGTEFTLTISSLQPDDFATYYCLGYFDCSIADCVAFGGGTKVEIK |
| 0.00522 s⁻¹ | 2 min | – | VH14 with VL39: anti-human tau(pS422) antibody; VH SEQ ID NO: 50, VL SEQ ID NO: 42 (antibody, V domains shown, humanized sequence) VH: QQLVESGGGLVQPGGSLRLSCAASGFSLSSNAINWVRQAPGKGLEWVGYIAVSGNTYYASWAKGRFTISRDNSKNTLYLQMNSLRAEDTAVYYCGKSNIWGPGTLVTVSS VL: DIQMTQSPSSLSASVGDRVTITCRSSQSVRTNRLAWFQQKPGQPPKRLIYSASTLDFGVPSRFSGSGSGTEFTLTISSLQPEDFATYYCLGYFDPSIADPVAFGGGTKVEIK |
| 0.0033 s⁻¹ | 4 min | – | VH14 with VL22: anti-human tau(pS422) antibody; VH SEQ ID NO: 50, VL SEQ ID NO: 17 (antibody, V domains shown, humanized sequence) VH: QQLVESGGGLVQPGGSLRLSCAASGFSLSSNAINWVRQAPGKGLEWVGYIAVSGNTYYASWAKGRFTISRDNSKNTLYLQMNSLRAEDTAVYYCGKSNIWGPGTLVTVSS VL: AQVMTQSPSSLSASVGDRVTITCRSSQSVRTNRLAWFQQKPGQPPKRLIYSASTLDYGVPSRFSGSGSGTEFTLTISSLQPEDFATYYCLGYFDSSADIVAFGGGTKVEIK |
| 0.00384 s⁻¹ | 3 min | – | VH14 with VL28: anti-human tau(pS422) antibody; VH SEQ ID NO: 50, VL SEQ ID NO: 39 (antibody, V domains shown, humanized sequence) VH: QQLVESGGGLVQPGGSLRLSCAASGFSLSSNAINWVRQAPGKGLEWVGYIAVSGNTYYASWAKGRFTISRDNSKNTLYLQMNSLRAEDTAVYYCGKSNIWGPGTLVTVSS VL: AIQMTQSPSTLSASVGDRVTITCRSSQSVRTNRLAWFQQKPGKAPKRLIYSASTLDFGVPSRFSGSGSGTEFTLTISSLQPDDFATYYCLGYFDPSADPVAFGGGTKVEIK |
| 0.00293 s⁻¹ | 4 min | – | VH14 with VL21: anti-human tau(pS422) antibody; VH SEQ ID NO: 50, VL SEQ ID NO: 16 (antibody, V domains shown, humanized sequence) VH: QQLVESGGGLVQPGGSLRLSCAASGFSLSSNAINWVRQAPGKGLEWVGYIAVSGNTYYASWAKGRFTISRDNSKNTLYLQMNSLRAEDTAVYYCGKSNIWGPGTLVTVSS VL: AQVMTQSPSSLSASVGDRVTITCRSSQSVRTNKLAWFQQKPGQPPKRLIYSASTLDFGVPSRFSGSGSGTEFTLTISSLQPEDFATYYCLGYFDSSADIVAFGGGTKVEIK |
| 0.00382 s⁻¹ | 3 min | – | VH14 with VL01: anti-human tau(pS422) antibody; VH SEQ ID NO: 50, VL SEQ ID NO: 32 (antibody, V domains shown, humanized sequence) VH: QQLVESGGGLVQPGGSLRLSCAASGFSLSSNAINWVRQAPGKGLEWVGYIAVSGNTYYASWAKGRFTISRDNSKNTLYLQMNSLRAEDTAVYYCGKSNIWGPGTLVTVSS VL: DIQMTQSTSTLSASVGDRVTITCQSSQSVRTNKLAWFQQKPGKAPKRLIYSASTLDFGVPSRFSGSGSGTEFTLTISSLQPDDFATYYCLGYFDCSIADCVAFGGGTKVEIK |
| 0.00104 s⁻¹ | 11 min | – | VH14 with VL00: anti-human tau(pS422) antibody; VH SEQ ID NO: 50, VL SEQ ID NO: 07 (antibody, listed as Oryctolagus cuniculus, V domains shown, humanized sequence) VH: QQLVESGGGLVQPGGSLRLSCAASGFSLSSNAINWVRQAPGKGLEWVGYIAVSGNTYYASWAKGRFTISRDNSKNTLYLQMNSLRAEDTAVYYCGKSNIWGPGTLVTVSS VL: AQVLTQTTSPVSAAVGSTVTISCQSSQSVRTNKLAWFQQKPGQPPKRLIYSASTLDFGVPSRFSASGSGTQFTLTISDVQCDDAATYYCLGYFDCSIADCVAFGGGTEVVVK |
| 0.00198 s⁻¹ | 6 min | – | VH14 with VL19: anti-human tau(pS422) antibody; VH SEQ ID NO: 50, VL SEQ ID NO: 38 (antibody, V domains shown, humanized sequence) VH: QQLVESGGGLVQPGGSLRLSCAASGFSLSSNAINWVRQAPGKGLEWVGYIAVSGNTYYASWAKGRFTISRDNSKNTLYLQMNSLRAEDTAVYYCGKSNIWGPGTLVTVSS VL: AQVMTQSPSSLSASVGDRVTITCRSSQSVRTNKLAWFQQKPGQPPKRLIYSASTLDFGVPSRFSGSGSGTEFTLTISSLQPEDFATYYCLGYFDCSIADCVAFGGGTKVEIK |
| 0.00301 s⁻¹ | 4 min | – | VH14 with VL40: anti-human tau(pS422) antibody; VH SEQ ID NO: 50, VL SEQ ID NO: 43 (antibody, V domains shown, humanized sequence) VH: QQLVESGGGLVQPGGSLRLSCAASGFSLSSNAINWVRQAPGKGLEWVGYIAVSGNTYYASWAKGRFTISRDNSKNTLYLQMNSLRAEDTAVYYCGKSNIWGPGTLVTVSS VL: DIQMTQSPSSLSASVGDRVTITCRSSQSVRTNRLAWFQQKPGQPPKRLIYSASTLDFGVPSRFSGSGSGTEFTLTISSLQPEDFATYYCLGYFDPSADPVAFGGGTKVEIK |
| 0.0102 s⁻¹ | 1 min | – | VH14 with VL33: anti-human tau(pS422) antibody; VH SEQ ID NO: 50, VL SEQ ID NO: 40 (antibody, V domains shown, humanized sequence) VH: QQLVESGGGLVQPGGSLRLSCAASGFSLSSNAINWVRQAPGKGLEWVGYIAVSGNTYYASWAKGRFTISRDNSKNTLYLQMNSLRAEDTAVYYCGKSNIWGPGTLVTVSS VL: AIQMTQSPSSLSASVGDRVTITCRSSQSVRTNRLAWFQQKPGQPPKRLIYSASTLDFGVPSRFSGSGSGTEFTLTISSLQPEDFATYYCLGYFDSSIADIVAFGGGTKVEIK |

Same assay, conditions: 25 °C; VL17 or VL19 with VH variants

| kd [s⁻¹] | t/2 diss [min] | Molecule |
| --- | --- | --- |
| 0.003 | 4 | VH14 with VL17: anti-human tau(pS422) antibody; VH SEQ ID NO: 50, VL SEQ ID NO: 37 (antibody, V domains shown, humanized sequence) VH: QQLVESGGGLVQPGGSLRLSCAASGFSLSSNAINWVRQAPGKGLEWVGYIAVSGNTYYASWAKGRFTISRDNSKNTLYLQMNSLRAEDTAVYYCGKSNIWGPGTLVTVSS VL: DIQMTQSPSSLSASVGDRVTITCRSSQSVRTNKLAWFQQKPGQPPKRLIYSASTLDFGVPSRFSGSGSGTEFTLTISSLQPEDFATYYCLGYFDCSIADCVAFGGGTKVEIK |
| 0.002 | 6 | VH14 with VL19: anti-human tau(pS422) antibody; VH SEQ ID NO: 50, VL SEQ ID NO: 38 (antibody, V domains shown, humanized sequence) VH: QQLVESGGGLVQPGGSLRLSCAASGFSLSSNAINWVRQAPGKGLEWVGYIAVSGNTYYASWAKGRFTISRDNSKNTLYLQMNSLRAEDTAVYYCGKSNIWGPGTLVTVSS VL: AQVMTQSPSSLSASVGDRVTITCRSSQSVRTNKLAWFQQKPGQPPKRLIYSASTLDFGVPSRFSGSGSGTEFTLTISSLQPEDFATYYCLGYFDCSIADCVAFGGGTKVEIK |
